Source: publication PMC11702068, “NEK8 promotes the progression of gastric cancer by reprogramming asparagine metabolism” (Molecular Medicine, 2025)

Target: T1, His-NEK8 (UniProt Q86SG6 1-692)
T1 construct: NEK8 (NIMA-related kinase 8); also called His-tagged NEK8; source: E. coli BL21, purified (Ni-NTA agarose)
T1 sequence (looked up): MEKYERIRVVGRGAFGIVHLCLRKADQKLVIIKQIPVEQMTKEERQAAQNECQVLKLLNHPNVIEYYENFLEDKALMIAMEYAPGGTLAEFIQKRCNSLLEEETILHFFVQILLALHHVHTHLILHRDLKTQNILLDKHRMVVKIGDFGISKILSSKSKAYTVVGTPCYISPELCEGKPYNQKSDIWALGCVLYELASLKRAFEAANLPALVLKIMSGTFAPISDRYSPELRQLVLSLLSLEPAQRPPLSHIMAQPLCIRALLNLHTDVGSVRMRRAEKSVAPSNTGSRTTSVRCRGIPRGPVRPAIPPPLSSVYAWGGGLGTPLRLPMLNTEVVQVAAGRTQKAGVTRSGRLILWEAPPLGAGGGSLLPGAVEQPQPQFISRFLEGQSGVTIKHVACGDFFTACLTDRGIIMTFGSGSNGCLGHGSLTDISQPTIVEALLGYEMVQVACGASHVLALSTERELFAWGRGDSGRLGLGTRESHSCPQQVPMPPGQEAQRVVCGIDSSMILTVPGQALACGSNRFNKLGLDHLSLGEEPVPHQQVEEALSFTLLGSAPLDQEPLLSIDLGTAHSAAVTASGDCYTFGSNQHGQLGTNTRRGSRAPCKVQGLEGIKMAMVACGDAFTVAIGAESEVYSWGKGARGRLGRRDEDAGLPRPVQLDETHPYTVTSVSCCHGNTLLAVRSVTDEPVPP
Assay: pull-down; GST affinity isolation: GST-tagged NEK8 or ASNS proteins on glutathione-Sepharose 4B beads incubated with His-tagged ASNS or NEK8 at 4 °C for five hours; wash with GST binding buffer (2 mM EDTA, 50 mM NaF, 100 mM NaCl, 1% NP-40); immunoblotting
Details: both partners purified

- binding result: binds
B1: GST-ASNS full-length (enzyme, UniProt P08243 1-561, looked up)
chain: MCGIWALFGSDDCLSVQCLSAMKIAHRGPDAFRFENVNGYTNCCFGFHRLAVVDPLFGMQPIRVKKYPYLWLCYNGEIYNHKKMQQHFEFEYQTKVDGEIILHLYDKGGIEQTICMLDGVFAFVLLDTANKKVFLGRDTYGVRPLFKAMTEDGFLAVCSEAKGLVTLKHSATPFLKVEPFLPGHYEVLDLKPNGKVASVEMVKYHHCRDVPLHALYDNVEKLFPGFEIETVKNNLRILFNNAVKKRLMTDRRIGCLLSGGLDSSLVAATLLKQLKEAQVQYPLQTFAIGMEDSPDLLAARKVADHIGSEHYEVLFNSEEGIQALDEVIFSLETYDITTVRASVGMYLISKYIRKNTDSVVIFSGEGSDELTQGYIYFHKAPSPEKAEEESERLLRELYLFDVLRADRTTAAHGLELRVPFLDHRFSSYYLSLPPEMRIPKNGIEKHLLRETFEDSNLIPKEILWRPKEAFSDGITSVKNSWFKILQEYVEHQVDDAMMANAAQKFPFNTPKTKEGYYYRQVFERHYPGRADWLSHYWMPKWINATDPSARTLTHYKSAVKA
notes: asparagine synthetase (ASNS), full-length (FL); also called FL
